{
  "source": "paper PMC8809517",
  "about": "“Cofactor-independent RNA editing by a synthetic S-type PPR protein”",
  "key": {"[1]": {"system": "TRX-9S-S2 (synthetic construct (Selaginella-type S motif consensus))", "experiment": "ITC", "settings": "HRP: 50 mM Tris pH 8, 150 mM NaCl, 1 mM bME, 50 ug/ml BSA, 3 ug/ml yeast RNA, 0.5% heparin, 2 nM RNA; ITC (25 C) and FP: Tris pH 8, 200 mM KCl, 5% glycerol …"}, "[2]": {"system": "TRX-9P-S2 (synthetic construct)", "experiment": "ITC", "settings": "HRP: 50 mM Tris pH 8, 150 mM NaCl, 1 mM bME, 50 ug/ml BSA, 3 ug/ml yeast RNA, 0.5% heparin, 2 nM RNA; ITC (25 C) and FP: Tris pH 8, 200 mM KCl, 5% glycerol …"}, "[3]": {"system": "TRX-9S-E2 (synthetic construct)", "experiment": "MST", "settings": "HRP: 50 mM Tris pH 8, 150 mM NaCl, 1 mM bME, 50 ug/ml BSA, 3 ug/ml yeast RNA, 0.5% heparin, 2 nM RNA; ITC (25 C) and FP: Tris pH 8, 200 mM KCl, 5% glycerol …"}, "[4]": {"system": "GFP-9S motif 4 LD (synthetic construct)", "experiment": "HRP pulldown", "settings": "lysate, HRP: 50 mM Tris pH 8, 150 mM NaCl, 1 mM bME, 50 ug/ml BSA, 3 ug/ml yeast RNA, 0.5% heparin, 2 nM RNA, ITC (25 C) and FP: Tris pH 8, 200 mM KCl, 5% glycerol …"}, "[5]": {"system": "GFP-9S motif 4 KD (synthetic construct)", "experiment": "HRP pulldown", "settings": "lysate, HRP: 50 mM Tris pH 8, 150 mM NaCl, 1 mM bME, 50 ug/ml BSA, 3 ug/ml yeast RNA, 0.5% heparin, 2 nM RNA, ITC (25 C) and FP: Tris pH 8, 200 mM KCl, 5% glycerol …"}, "[6]": {"system": "TRX-9S-S2 (synthetic construct (Selaginella-type S motif consensus))", "experiment": "HRP pulldown", "settings": "HRP: 50 mM Tris pH 8, 150 mM NaCl, 1 mM bME, 50 ug/ml BSA, 3 ug/ml yeast RNA, 0.5% heparin, 2 nM RNA; ITC (25 C) and FP: Tris pH 8, 200 mM KCl, 5% glycerol …"}, "[7]": {"system": "TRX-AviTag-9S-S2 (synthetic construct)", "experiment": "HRP pulldown", "settings": "HRP: 50 mM Tris pH 8, 150 mM NaCl, 1 mM bME, 50 ug/ml BSA, 3 ug/ml yeast RNA, 0.5% heparin, 2 nM RNA; ITC (25 C) and FP: Tris pH 8, 200 mM KCl, 5% glycerol …"}, "[8]": {"system": "GFP-9S motif 4 ID (synthetic construct)", "experiment": "HRP pulldown", "settings": "lysate; HRP: 50 mM Tris pH 8, 150 mM NaCl, 1 mM bME, 50 ug/ml BSA, 3 ug/ml yeast RNA, 0.5% heparin, 2 nM RNA; ITC (25 C) and FP: Tris pH 8, 200 mM KCl, 5% glycerol …"}, "[9]": {"system": "TRX-9P-S2 (synthetic construct)", "experiment": "HRP pulldown", "settings": "HRP: 50 mM Tris pH 8, 150 mM NaCl, 1 mM bME, 50 ug/ml BSA, 3 ug/ml yeast RNA, 0.5% heparin, 2 nM RNA; ITC (25 C) and FP: Tris pH 8, 200 mM KCl, 5% glycerol …"}, "[10]": {"system": "GFP-9S motif 4 TD (synthetic construct)", "experiment": "HRP pulldown", "settings": "HRP: 50 mM Tris pH 8, 150 mM NaCl, 1 mM bME, 50 ug/ml BSA, 3 ug/ml yeast RNA, 0.5% heparin, 2 nM RNA; ITC (25 C) and FP: Tris pH 8, 200 mM KCl, 5% glycerol …"}, "[11]": {"system": "GFP-9S (synthetic construct)", "experiment": "HRP pulldown", "settings": "HRP: 50 mM Tris pH 8, 150 mM NaCl, 1 mM bME, 50 ug/ml BSA, 3 ug/ml yeast RNA, 0.5% heparin, 2 nM RNA; ITC (25 C) and FP: Tris pH 8, 200 mM KCl, 5% glycerol …"}, "[12]": {"system": "TRX-9S-S2 (synthetic construct (Selaginella-type S motif consensus))", "experiment": "fluorescence polarization", "settings": "HRP: 50 mM Tris pH 8, 150 mM NaCl, 1 mM bME, 50 ug/ml BSA, 3 ug/ml yeast RNA, 0.5% heparin, 2 nM RNA; ITC (25 C) and FP: Tris pH 8, 200 mM KCl, 5% glycerol …"}, "9S-S2 PPR [13]": {"biological_target": "T1, 9S-S2 PPR (synthetic construct)", "T1 chain": "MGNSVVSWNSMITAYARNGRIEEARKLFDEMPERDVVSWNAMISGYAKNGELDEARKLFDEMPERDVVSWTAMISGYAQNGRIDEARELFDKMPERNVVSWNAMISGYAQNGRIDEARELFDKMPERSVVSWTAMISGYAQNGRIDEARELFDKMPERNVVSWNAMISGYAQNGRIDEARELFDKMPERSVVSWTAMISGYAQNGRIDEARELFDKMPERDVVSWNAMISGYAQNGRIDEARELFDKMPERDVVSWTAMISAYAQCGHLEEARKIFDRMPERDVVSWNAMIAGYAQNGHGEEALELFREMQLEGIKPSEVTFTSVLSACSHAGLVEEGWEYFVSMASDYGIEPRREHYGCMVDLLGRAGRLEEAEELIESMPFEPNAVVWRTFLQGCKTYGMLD", "experiment": "isothermal titration calorimetry; HRP: 50 mM Tris pH 8, 150 mM NaCl, 1 mM beta-mercaptoethanol, 50 ug/ml BSA, 3 ug/ml yeast RNA, 0.5% heparin; ITC and FP: Tris pH 8, 200 mM KCl, 5% glycerol; MST: 50 mM Tris pH 8, 200 mM NaCl, 1 mM DTT, BSA, heparin, 0.05% Tween 20", "settings": "protein: recombinant; tags: N-terminal TRX-His"}, "9P-S2": {"biological_target": "T2, 9P-S2 (synthetic construct)", "T2 chain": "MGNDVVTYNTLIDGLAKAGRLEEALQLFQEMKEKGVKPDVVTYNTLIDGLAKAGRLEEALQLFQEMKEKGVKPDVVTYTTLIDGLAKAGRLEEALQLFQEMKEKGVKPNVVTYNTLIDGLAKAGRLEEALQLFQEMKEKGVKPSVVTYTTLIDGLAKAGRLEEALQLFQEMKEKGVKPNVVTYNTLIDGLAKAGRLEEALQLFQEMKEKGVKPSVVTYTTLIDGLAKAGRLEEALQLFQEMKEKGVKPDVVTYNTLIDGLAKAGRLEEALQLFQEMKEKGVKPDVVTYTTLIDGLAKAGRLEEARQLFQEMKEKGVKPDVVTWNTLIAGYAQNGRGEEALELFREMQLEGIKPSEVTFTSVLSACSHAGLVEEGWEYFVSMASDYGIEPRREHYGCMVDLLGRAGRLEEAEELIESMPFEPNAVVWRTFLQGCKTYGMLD", "experiment": "isothermal titration calorimetry; HRP: 50 mM Tris pH 8, 150 mM NaCl, 1 mM beta-mercaptoethanol, 50 ug/ml BSA, 3 ug/ml yeast RNA, 0.5% heparin; ITC and FP: Tris pH 8, 200 mM KCl, 5% glycerol; MST: 50 mM Tris pH 8, 200 mM NaCl, 1 mM DTT, BSA, heparin, 0.05% Tween 20", "settings": "protein: recombinant; tags: N-terminal TRX-His"}, "9S-S2 PPR [14]": {"biological_target": "T1, 9S-S2 PPR", "experiment": "fluorescence polarization; HRP: 50 mM Tris pH 8, 150 mM NaCl, 1 mM beta-mercaptoethanol, 50 ug/ml BSA, 3 ug/ml yeast RNA, 0.5% heparin; ITC and FP: Tris pH 8, 200 mM KCl, 5% glycerol; MST: 50 mM Tris pH 8, 200 mM NaCl, 1 mM DTT, BSA, heparin, 0.05% Tween 20", "settings": "protein: recombinant; tags: N-terminal TRX-His; label: fluorescein"}, "9S-S2 PPR [15]": {"biological_target": "T1, 9S-S2 PPR", "experiment": "high-throughput RNA pulldown on Ni-NTA beads; HRP: 50 mM Tris pH 8, 150 mM NaCl, 1 mM beta-mercaptoethanol, 50 ug/ml BSA, 3 ug/ml yeast RNA, 0.5% heparin; ITC and FP: Tris pH 8, 200 mM KCl, 5% glycerol; MST: 50 mM Tris pH 8, 200 mM NaCl, 1 mM DTT, BSA, heparin, 0.05% Tween 20", "settings": "protein: recombinant; tags: N-terminal TRX-His; label: 5' Cy5"}, "[16]": {"settings": "Kd above 200 nM called unreliable"}},
  "data": [
    {"molecule": "UUACACGUG [rpoA footprint (ITC)]", "values": [
      {"measurement": "Kd", "setting": "[1]", "result": 48, "unit": "nM"},
      {"measurement": "Kd", "setting": "[2]", "result": 239, "unit": "nM"}
    ]},
    {"molecule": "AUUACACGUGA [Cy5-rpoA]", "values": [
      {"measurement": "Kd", "setting": "[3]", "result": 6.8, "unit": "nM"},
      {"measurement": "Kd", "setting": "[4]; [16]", "result": 214, "unit": "nM"},
      {"measurement": "Kd", "setting": "[5]", "result": 189, "unit": "nM"},
      {"measurement": "Kd", "setting": "[6]", "result": 6.4, "unit": "nM"},
      {"measurement": "Kd", "setting": "[7]", "result": 5.3, "unit": "nM"},
      {"measurement": "Kd", "setting": "[8]", "result": 153, "unit": "nM"},
      {"measurement": "Kd", "setting": "[9]", "result": 68, "unit": "nM"},
      {"measurement": "Kd", "setting": "[10]", "result": 280, "unit": "nM"},
      {"measurement": "Kd", "setting": "[11]", "result": 12, "unit": "nM"}
    ]},
    {"molecule": "AUUAAACGUGA [IR-rpoA-A]", "values": [
      {"measurement": "Kd", "setting": "[4]; [16]", "result": 452, "unit": "nM"},
      {"measurement": "Kd", "setting": "[5]; [16]", "result": 409, "unit": "nM"},
      {"measurement": "Kd", "setting": "[8]", "result": 175, "unit": "nM"}
    ]},
    {"molecule": "AUUAUACGUGA [IR-rpoA-U]", "values": [
      {"measurement": "Kd", "setting": "[4]", "result": 66.3, "unit": "nM"},
      {"measurement": "Kd", "setting": "[5]; [16]", "result": 279, "unit": "nM"},
      {"measurement": "Kd", "setting": "[8]", "result": 53.5, "unit": "nM"}
    ]},
    {"molecule": "AUUACACGUG [rpoA (FP)]", "values": [
      {"measurement": "Kd", "setting": "[12]", "result": 7.6, "unit": "nM"}
    ]},
    {"molecule": "AUUAGACGUGA [Cy5-rpoA-G]", "values": [
      {"measurement": "Kd", "setting": "[4]", "result": 183, "unit": "nM"},
      {"measurement": "Kd", "setting": "[5]; [16]", "result": 315, "unit": "nM"},
      {"measurement": "Kd", "setting": "[8]", "result": 127, "unit": "nM"},
      {"measurement": "Kd", "setting": "[10]", "result": 14, "unit": "nM"}
    ]},
    {"molecule": "UUACACGUG (ssRNA)", "note": "[rpoA footprint (ITC)]", "values": [
      {"measurement": "Kd", "setting": "9S-S2 PPR [13]", "result": 48, "unit": "nM"},
      {"measurement": "Kd", "setting": "9P-S2", "result": 239, "unit": "nM"}
    ]},
    {"molecule": "AUUACACGUG (ssRNA)", "note": "[rpoA (FP)]", "values": [
      {"measurement": "Kd", "setting": "9S-S2 PPR [14]", "result": 7.6, "unit": "nM"}
    ]},
    {"molecule": "CAGCAACAGAAGCCCAAGCUCAUGGA (ssRNA)", "note": "[Cy5-clpP (clpP1)]", "values": [
      {"measurement": "binding result", "setting": "9S-S2 PPR [15]", "result": "no binding"}
    ]}
  ]
}
